# Data from article PMC7380959 (Science Advances, 2020).
# B1: 212.1.1 IgG (antibody, V domains shown)
# VH: QVQLVQSGAEVKKPGSSVKVSCKASGGTLSSYGISWVRQAPGQGLEWLGGSIPILGTSVYAQKFQGRVTMTADESTSTAHMELSSLRFDDTAIYYCAGVREGMAAISGKNAFDIWGQGTMVTVSS
# VL: DIQMTQSPSSLSASVGDRVTITCRASQGISNYLAWYQQKPGKVPKLLIYAASTLQSGVPSRFSGSGYGTEFTLTISSLQPEDVATYYCQQHDNLPLTFGGGTKVEIK
# Molecular target: H77 E1E2 (full-length E1E2, wild type) (Hepatitis C virus genotype 1a, isolate …)
# Test: ELISA
binder,measurement,value
B1,binding result,binds
